Data taken from patent US20240084011A1 (NANTBIO, published 2024).
Positions count from the first letter of the chain named.

Columns and labels:
[1] = molecular target: T1, recombinant human CTLA-4 protein (human, UniProt P16410 36-161); assay: SPR (Pioneer FE) or Octet (Red96e), 25 C; IgG captured by anti-human Fc or AHC sensor, hCTLA-4 as analyte
T1 construct: Recombinant protein used as analyte in SPR/Octet; also called hCTLA-4; CD152
T1 sequence (looked up): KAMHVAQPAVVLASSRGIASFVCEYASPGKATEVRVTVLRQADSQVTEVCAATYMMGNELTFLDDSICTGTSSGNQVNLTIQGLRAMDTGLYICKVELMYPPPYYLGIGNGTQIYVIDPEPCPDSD
From the text: (§1) All values shown in Table 5 are ×10⁻⁹ M. Antibodies were captured on the chip surface using anti-human Fc antibody (SPR) or AHC sensor (Octet).

[2] = molecular target: T2, recombinant mouse CTLA-4 protein (mouse, UniProt P09793 36-161); assay: SPR (Pioneer FE) or Octet (Red96e), 25 C; IgG captured by anti-human Fc or AHC sensor, mCTLA-4 as analyte
T2 construct: Recombinant protein used as analyte in SPR/Octet; also called murine CTLA-4; mCTLA-4
From the text: as §1

[3] = molecular target: T1, recombinant human CTLA-4 protein; assay: SPR (Pioneer FE) or Octet (Red96e), 37 C; IgG captured by anti-human Fc or AHC sensor, hCTLA-4 as analyte
From the text: as §1

[4] = molecular target: T2, recombinant mouse CTLA-4 protein; assay: SPR (Pioneer FE) or Octet (Red96e), 37 C; IgG captured by anti-human Fc or AHC sensor, mCTLA-4 as analyte
From the text: as §1

B1: IgG antibody 78-8D2 HC / 78-8 LC (antibody, V domains shown)
VH: EVQLVESGGGLVQPGGSLRLSCAASGFTFSSYVMHWVRQAPGKGLEWVSAITWSGRGTYYADSVKGRFTISRDNSKNTLYLQMNSLRAEDTAVYYCARGRLFGLALYGEAFDVWGQGTLVTVSS
VL: DIQMTQSPSSLSASVGDRVTITCQASKDISNYLNWYQQKPGKAPKLLIYDASNLETGVPSRFSGSGSGTDFTFTISSLQPEDIATYYCQQFNSFPLTFGQGTKVEIKR
Kd [1]: 0.41 nM
Kd [2]: 0.32 nM
Kd [3]: 0.67 nM
Kd [4]: 0.4 nM

B2: IgG antibody 78-8D4 HC / 78-8 LC (antibody, V domains shown)
VH: B1 VH with R56G, A105V, L106R
VL: B1 VL
Kd [1]: 0.39 nM
Kd [2]: 0.27 nM
Kd [3]: 0.39 nM
Kd [4]: 0.27 nM

B3: IgG antibody 78-8D22 HC / 78-8 LC (antibody, V domains shown)
VH: B1 VH with T52S, R56S, L106R
VL: B1 VL
Kd [1]: 0.46 nM
Kd [2]: 0.39 nM
Kd [3]: 0.44 nM
Kd [4]: 0.53 nM

B4: IgG antibody 78-24D1V HC / 78-24 LC (antibody, V domains shown)
VH: EVQLVESGGGLVQPGGSLRLSCAASGFTFTSYSMHWVRQAPGKGLEWVSGISGSGRSTSYADSVKGRFTISRDNSKNTLYLQMNSLRAEDTAVYYCARDLMAFNLVRAGGFDVWGQGTLVTVSS
VL: B1 VL with K27Q, F91G, N92D, S93A, F94W, L96W
Kd [1]: 1.6 nM
Kd [2]: 0.18 nM
Kd [3]: 1.5 nM
Kd [4]: 0.23 nM

B5: IgG antibody 78-24D17V HC / 78-24 LC (antibody, V domains shown)
VH: B4 VH with T30S, Y32S, R56G, D99Y, A102S, A108T, G109S, G110W
VL: B1 VL with K27Q, F91G, N92D, S93A, F94W, L96W
Kd [2]: 0.34 nM
Kd [4]: 0.33 nM

B6: IgG antibody 78-24D22V HC / 78-24 LC (antibody, V domains shown)
VH: B4 VH with T30P, R56W
VL: B1 VL with K27Q, F91G, N92D, S93A, F94W, L96W
Kd [1]: 1.4 nM
Kd [2]: 0.19 nM
Kd [3]: 1.3 nM
Kd [4]: 0.27 nM
